Experimental data as given in paper PMC5601999.

Assays:
FGF2-Y81pCMF-GFP (human) [1] = assay: z-scan fluorescence correlation spectroscopy (brightness analysis); as a2; GUVs without membrane pores, protein surface concentration ≤0.4 nmol/m^2
FGF2-Y81pCMF-GFP (human) [2] = assay: z-scan fluorescence correlation spectroscopy (brightness analysis); as a2; GUVs containing membrane pores, protein surface concentration smaller than 0.4 nmol/m^2
FGF2-Y81pCMF-GFP (human) [3] = assay: z-scan fluorescence correlation spectroscopy (brightness analysis); protein on single GUVs with a plasma membrane-like lipid composition containing PI(4,5)P2, pre-incubated at least 30 min; average oligomeric state = cluster brightness / monomer brightness; GUVs containing membrane pores, protein surface concentration larger than 0.4 nmol/m^2

Substance	stoichiometry N (average oligomeric state) (FGF2-Y81pCMF-GFP (human) [1])	stoichiometry N (average oligomeric state) (FGF2-Y81pCMF-GFP (human) [2])	stoichiometry N (average oligomeric state) (FGF2-Y81pCMF-GFP (human) [3])	stoichiometry N (FGF2-Y81pCMF-GFP (human) [3])
FGF2-Y81pCMF-GFP	5.22	5.24	9.23	
FGF2-Y81pCMF-GFP (natural protein)				8 to 12 subunits
